Laboratory results from publication PMC7710122.

Experiments:
[1] = western blot of β1 in purified sEVs; details: glycan changed form; control: vec-sEVs
[2] = western blot of cell lysates; details: glycan changed form; control: MDA/vec

## integrin β1: MGAT3 overexpression
[1]
  localisation_or_trafficking: no change
[2]
  expression_or_secretion: no change
